Source: the nanobody polyreactivity screen of Harvey et al. (2022)

assay: yeast display, Sf9 membrane polyspecificity reagent, FACS + sequencing; frameworks hold sequencing errors
Outline: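 Genes from sorted yeast were amplified by colony PCR, read by MiSeq 2 × 250 sequencing and filtered on CDR length. These cells carried a synthetic nanobody library in Saccharomyces cerevisiae BJ5465 and were sorted by FACS into low and high (top ~1%) gates on anti-HA and streptavidin fluorescence. Polyreactivity is labelled according to the gate of origin.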

| Sequence | polyreactivity (PSR sort gate) |
| --- | --- |
| QVQLVESGGGLVQAGGSLRLSCAASGSTLGGNAMGWYRQAPGKERELVAAITSSAGSTYYADSVKGRFTISRDNAKNTVYLQMNSLKPEDTAVYYCATSRDYIGYDYWGQGTQVTVSS | low polyreactivity |
| QVQLVESGGGLVQAGGSLRLSCAASGSTLGRNAMGWDRQAPGKERELVASITRSGGSTYYADSVKGRFTISRDNAKNTVYLQMNSLKPEDTAVYYCAAEVQGQVGEFDYWGQGTQVTVSS | low polyreactivity |
| QVQLVESGGGLVQAGGSLRLSCAASGSTLGSNAMGWYRQAPGKERELVAAITWSGGTTYYADSVKGRFTISRDNAKNTVYLQMNSLKPEDTAVYYCATGQSVIYRYEYWGQGTQVSVSS | low polyreactivity |
| QVQLVESGGGLVQAGGSLRLSCAASGSTLGSNAMGWYRQAPGKERELVAAITWSGGTTYYADSVKGRFTISRDNAKNTVYLQMNSMKPEDSAVYYCNAERGSGVWWKIWGSDPDDYWGQGTQVTVSS | low polyreactivity |
| QVQLVESGGGLVQAGGSLRLSCAASGSTLGSNARGWYRQAPGKERALVAAITWSGGTTYYADSVKGRFTISRDNAKNPVYLQMNSLKPEDTAVYYCATGQSVIYRYDYWGQGTQVTVSS | low polyreactivity |
| QVQLVESGGGLVQAGGSLRLSCAASGSTLGVYVMGWYRQAPGKERELVAAISRNGGSTYYADSVKGRFTISRDNAKITVYLQMNSLKPEDTAVYYCAARTVGRKAGFDYWGQGTQVTVSS | high polyreactivity |
| QVQLVESGGGLVQAGGSLRLSCAASGSTLGYYVMGWYRQAPGKERELVAAITGGGSTDYADSVKGRFTISRDNAKNTVYLQMNSLKPEDTAVDYCAAERTRTGQLFCWGPIYEYWGQGTQVTVSS | low polyreactivity |
| QVQLVESGGGLVQAGGSLRLSCAASGSTLHEYVMGWYRQAPGKGRELVAAISRRGDSTYYADSVKGRFTISRDNAKNTVYLQMNSLKPEDTAVYYCAARWYWYWSSWDYYSWGQGTQVTVSS | low polyreactivity |
| QVQLVESGGGLVQAGGSLRLSCAASGSTLHVYVMGWYRQAPGKERELVAAISYSGGITYYADSVKGRFTISRDNAKNTVYLQMNSLKPEDTAVYYCAARIISYRVRGKSRHDYWGQGTQVTVSS | low polyreactivity |
| QVQLVESGGGLVQAGGSLRLSCAASGSTLHYNAMGWYRQAPGKERELVARISWSGGSTYYADSVKGRFTISRDTAKNTVYLQMNSLKPEDTAVYYCAAPRYGHYTWLYDYWGQGTQVTVSS | low polyreactivity |
| QVQLVESGGGLVQAGGSLRLSCAASGSTLNSYVMGWYRQAPGKERELVATIRSGSSTNYADSVKGRFTISLDNAKNTVYLQMNSLKPVDTAVYYCSRDDRLAGDYWGQGTQVTVSS | low polyreactivity |
| QVQLVESGGGLVQAGGSLRLSCAASGSTLPGNVMGWYRQAPGKERELVAAISKRGASTYYADSVKGRFTISRDNAKYTVYLLMNSLKPEDTAVYYCATRTRGSVFRFDYWGQGTQVTVSS | high polyreactivity |
| QVQLVESGGGLVQAGGSLRLSCAASGSTLPTNAMGWYRQAPGKEREFVAAISDNGGSTYYADSVKGRFTISRDNAKNTVYLQMNSLKPEDTAVYYCAADWDESYSYRRYGHYDYWGQGTQVTVSS | low polyreactivity |
| QVQLVESGGGLVQAGGSLRLSCAASGSTLRDYVMGWYRQAPGKERELVAAITSRVDDTYYADSVKGRFTISRDNAKNTVYLQMNSLKPEDTAVYYCAKRYGRFYHYDYWGQGTQVTVSS | low polyreactivity |
| QVQLVESGGGLVQAGGSLRLSCAASGSTLRGNARGCYRQAPGKEREFVAAISSSGGRTYYADSVKGRFTISRDNAKNTVYLQMTSLNPEDTAVYYCAAAGYQYYFSSVPRAYYYWGQGTLVTVSS | high polyreactivity |
| QVQLVESGGGLVQAGGSLRLSCAASGSTLRTYAMGWYRQAPGKERELVAAISFSTTSTYYADSVKGRFTISRDNAKNTVYLQMNSLKPEDTAVYYCAAEYWYYWEYEYWGQGTQVTVSS | high polyreactivity |
| QVQLVESGGGLVQAGGSLRLSCAASGSTLRWNTMGWYRQAPGKERQLVARISKSGGSTSYADSVKGRLTISRDNAKNTVYLQMNSLKPEDTAVYYCAKTPSQGYVFSYRWGDYWGQGTQVTVSS | high polyreactivity |
| QVQLVESGGGLVQAGGSLRLSCAASGSTLSFNAMGWYRQAPGKERELVAGITYSGGSTYYADSVKGRFTISRDNAKNTVYLQMNSLKPEDTAVYYCNKSSGVYYGHLDYWGQGTQVTVSS | low polyreactivity |
| QVQLVESGGGLVQAGGSLRLSCAASGSTLSGYVMGWYRQAPGKERELVAGISQSGASTYYADSVKGRFTISRDNAKNTVYLQMNSLKPEDTAVYYCAAVARYLLKYRRYGYWGQGTQVTVSS | high polyreactivity |
| QVQLVESGGGLVQAGGSLRLSCAASGSTLSQYAMGWYRQAPGKERELVAAISGGGRTYYADSVKGRFTISRDNAKNTVYLQMNSLKPEDTAVYYCAKVRLKKGTRDSYDYWGQGTQVTVSS | high polyreactivity |

| Sequence | polyreactivity (PSR sort gate) |
| --- | --- |
| QVQLVESGGGLVQAGGSLRLSCAASGSTLSRYVMGWSRHAPGKERELVASISWSGTRTYYADSVKGRFTISRDNAKNTVYLQMNSLIPEDTAVYYCNAVSRGGRLYDYWGQGTQVTVSS | high polyreactivity |
| QVQLVESGGGLVQAGGSLRLSCAASGSTLSWYAMGWYRQAPGKERELVAAITRGGSTYYADSVKGRFTISRDNAKNTVYLQMNSLKPEDTAVYYCNAGRDGSRFQYRYDYWGQGTQVTVSS | low polyreactivity |
| QVQLVESGGGLVQAGGSLRLSCAASGSTLTRHAMGWYRQAPGKERELVAAITSGGRTKYADSVKGRFTISRDNAKYTVYLHMNSLKPEDTAVYYCAKGGPPGQRGYDYWGQGTQVTVSS | high polyreactivity |
| QVQLVESGGGLVQAGGSLRLSCAASGSTLVDNGMGWYRHAPGKERELVASISSDGSTNYADSVKGRFTISRDNAKYTVYLQMNSLKTEDPAVYYCAADEGTGQASLSSNLSDYWGQGTQVTVSS | low polyreactivity |
| QVQLVESGGGLVQAGGSLRLSCAASGSTLVGYDMGWYRQAHGKEMELVADITSTGSTNYADSVKGSFTISRDNAKNTVYLQMNSLKPEDTAVYYCAADLYFYIYSYNYWGQGTQVTVSS | low polyreactivity |
| QVQLVESGGGLVQAGGSLRLSCAASGSTLVIYAMGWSRQAPGKEREFVAAIRWSTGRTYYADSVKGRFTISRDNAKNTVYLQMNSLKPEDTAVYYCNASYWAPNSLPDGFRYDSWGQGTQVTVSS | high polyreactivity |
| QVQLVESGGGLVQAGGSLRLSCAASGSTLVKYAMGWYRQAPGKERELVARITLNGGRTYYADSVKGRFTISRDNAKNTVYLQMNSLKPEDTAVYYCAKSLPHSTSRDYWGQGTQVTVSS | low polyreactivity |
| QVQLVESGGGLVQAGGSLRLSCAASGSTLVLNAMGWYRQAPGKERELVAAITISGDTTYYADSVKGRFTISRDNAKNTVYLQMNSLKPEDTAVYYCAAVVSTVDGMEYWGQGTQVTVSS | low polyreactivity |
| QVQLVESGGGLVQAGGSLRLSCAASGSTLVTNAMGWYRQAPGKERELVAAITFSGGTTYYADSVKGRFTISRDNAKNTFYLQMNSLKPEDTAVYYCAAEIWLEYVGYDYWGQGTQVTVSS | high polyreactivity |
| QVQLVESGGGLVQAGGSLRLSCAASGSTLVTYAMGWYRQAPGKERELVAAISWRGGSTYYADSVKGRFTISRDNAKNTVYLQMNSLKPEDTAVYYCIKLRAYKESETYYYWGQGTQVTVSS | low polyreactivity |
| QVQLVESGGGLVQAGGSLRLSCAASGSTLVYNDMGWYRQAPGKEREFVAAIRSNDGSTYYADSVKGRFTISRDNAKNTVYLQMNSLKPEDTAVYYCATTQAYRGENYNYWGQGTQVTVSS | low polyreactivity |
| QVQLVESGGGLVQAGGSLRLSCAASGSTLWDYAMGWYRQAPGKERELVAAITQDGGSTYYADSVKGRFTISRDNAKNTVYLQMNSLKPEDTAVYYCAAEYWYDGGGYWGQGTQVTVSS | low polyreactivity |
| QVQLVESGGGLVQAGGSLRLSCAASGSTLYDYTMGWYRQAPGKERELVAAIRVSGARTFYADSVKGRFTISRDNAKNTVYLQMNSLKPEDTAVYYCAAEFGSFVSPYNYYYWGQGTQVTVSS | low polyreactivity |
| QVQLVESGGGLVQAGGSLRLSCAASGSTLYTYAMGWYRQAPGKERELVADISTGGSTYYADSVKGRFTISRDNAKNTVYLQMNSLKPEDTAVYYCAAESWFDPVDYWGQGTQVTVSS | low polyreactivity |
| QVQLVESGGGLVQAGGSLRLSCAASGSTLYTYAMGWYRQAPGKERELVATISWSGSSTYYADSVKGRFTISRDNAKNTVYLQMNSLKPEDTAVYYCNKVPGKSGVPPDYDYWGQGTQVTVSS | high polyreactivity |
| QVQLVESGGGLVQAGGSLRLSCAASGSTLYYYAMGWSRQAPGKERELVAAISWSGGITYYADSVKGRFTISRDNAKNTVYLQMNSLKPEDTAVYYCAADKYQGYTFYQGYPGGGGYWGQGTQVTVSS | low polyreactivity |
| QVQLVESGGGLVQAGGSLRLSCAASGSTNVVNAMGRYRQPPGKERELVAAITYSGGSTYYADSVKGRFTISRDNAKNTVYLQQNSLKPEDTAVYYCNTTLRDSRQYVDRAPYTRYDYWGQGTQVTVSS | low polyreactivity |
| QVQLVESGGGLVQAGGSLRLSCAASGSTRYNAKGWYRQAPGNERELVASIRGNAGSTYYADSVKGRFTISRDNAKNTVYLQMNSLKPEDTAVYYCNARYWYRYGGYKPVGGYYWGQGTQVTVSS | high polyreactivity |
| QVQLVESGGGLVQAGGSLRLSCAASGSTRYNAMGWYRQAPGKERELVASIRGNAGSTYYADSVKGRFTISRDNAKNTVYLQMNSLKPEDTAVYYCNARYWYRYGGYKPVGGYYWGQGTQVTVSS | high polyreactivity |
| QVQLVESGGGLVQAGGSLRLSCAASGSTSANYAMGWYRPAPGKERELVAAISGGARTNYADSVKGRFTISRDNAKNTVYLQMNSLKPEDTAVYYCATDAYYYNLLYLFPRYDYWGQGTQVTVSS | low polyreactivity |
